Assay results as given in US20220396617A1.
pEC50, pKd: −log10 of the molar value.

Key:
[1] = molecular target: human TIGIT (ECD)-his (human) (UniProt Q495A1); assay: ELISA, coated human TIGIT (ECD)-his (table head says FACS)
[2] = molecular target: TIGIT (ECD)-hFc (human) (UniProt Q495A1); assay: FACS blocking assay (protocol of Example 7): serially diluted antibody pre-incubated with TIGIT (ECD)-hFc, then binding of TIGIT (ECD)-hFc to A549/human PVR cells measured; blocked ligand: human PVR [A]
Sequence of TIGIT (ECD)-hFc (human) (Q495A1 22-141): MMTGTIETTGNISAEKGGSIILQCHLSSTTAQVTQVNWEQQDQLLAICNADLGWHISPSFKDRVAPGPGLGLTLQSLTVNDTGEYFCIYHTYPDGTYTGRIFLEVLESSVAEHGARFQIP

[3] = molecular target: TIGIT (ECD)-hFc (human) (UniProt Q495A1); assay: FACS blocking assay (protocol of Example 7): serially diluted antibody pre-incubated with TIGIT (ECD)-hFc, then binding of TIGIT (ECD)-hFc to A549/human PVR cells measured; blocked ligand: human PVR
[4] = molecular target: human TIGIT (ECD)-his (human) (UniProt Q495A1); assay: SPR (BIAcore 8K), human TIGIT (ECD)-his on CM5 chip, antibody injected
[5] = molecular target: TIGIT (ECD)-hFc (human) (UniProt Q495A1); assay: FACS blocking assay: antibody preincubated with TIGIT (ECD)-hFc, binding to A549/human PVR cells
[6] = molecular target: TIGIT (ECD)-hFc (human) (UniProt Q495A1); assay: FACS blocking assay (protocol of Example 7): serially diluted antibody pre-incubated with TIGIT (ECD)-hFc, then binding of TIGIT (ECD)-hFc to A549/human PVR cells measured; blocked ligand: human PVR [B]

Sequence of human TIGIT (ECD)-his (human) (Q495A1 22-141): as above

pEC50 [1]: 9.80 | IC50 (read off the curve) [2]: 4 µg/mL | IC50 (read off the curve) [3]: 3 µg/mL | pKd [4]: 11.83 | pEC50 [5]: 7.38 | IC50 (read off the curve) [6]: 5 µg/mL
Substance: Tiragolumab (antibody)
